{"source": "patent US12551583B2", "about": "“Radiolabeled ligands for targeted PET/SPECT imaging and methods of their use” (MEMORIAL SLOAN KETTERING CANCER CENTER, priority 2016, dated 2026)", "key": {"in vivo": {"test": "in vivo", "details": "female, BALB/c, mouse, iv, 50 uCi, total radioactivity, 4T1 tumoral uptake", "description": "(§1) 4T1 orthotopic BALB/c mouse model. The cells were removed from the flasks, concentrated, and resuspended in minimal media for cell counting. The cells were then diluted to contain approximately 1 million cells in 30 μL of media (for orthotopic allografts). Following an MSKCC Institutional Animal Care and Use Committee approved protocol, 8-10 week old BALB/c mice (Charles River Laboratories, Wilmington, MA) were surgically implanted with one million 4T1 cancer cells into the first or the last mammary fat pad of the right side of the animal using aseptic surgical techniques and sterile staple closures while the mice were under anesthetic. Additionally, mice were given injections of meloxicam (24 h pain killer) in the scruff and bupivacaine intradermally prior to surgical incisions. One day post surgery, the mice were again given meloxicam and checked to ensure that the closure was healing. Two and three days post surgery, the mice were checked to ensure that the animals were healthy and recovering well from the surgery. Five to seven days post surgery, the staples were removed. Five to nine days post surgery, the mice were injected with 50-75 μCi (0.9-0.4 nmol) of the respective radiopharmaceutical for in vivo biodistribution or 500-600 μCi (9-11 nmol) for in vivo imaging. The mice receiving ^64Cu-NOTA-pHLIP were sacrificed at 1, 2, 4, 12, 24, 36, and 48 h; the mice receiving [^18F]—AlF-NOTA-pHLIP were sacrificed at 0.5, 1, 2, 4, 6 and 8 h. The 4T1 tumors in this study were purposely used 5-9 days after inoculation to ensure lower tumoral pH. Animal models. Animal studies were conducted according to MSKCC IACUC-approved animal protocol. 4T1 (orthotopic breast cancer allografts of 1×10^6 cells surgically implanted in the mammary fat pad) and B16-F10 (orthotopic melanoma allografts of 1×10^5 cells injected intradermally on the shoulder) tumors were orthotopically inoculated in media in female BALB/c and C57Bl/6 mice (Charles River Laboratories (CRL)), respectively. Additionally, PC3 (3×10^6 cells) or LNCaP (3-6×10^6 cells) tumors were subcutaneously xenografted on the shoulder of athymic nude male mice (CRL). Mice were used once tumor volumes were approximately 90-300 mm^3. In vivo animal PET imaging and biodistribution. Mice were injected with radiolabeled NOTA-pHLIP derivatives i.v. (500-700 μCi/mouse for PET or SPECT imaging studies and 25-100 μCi/mouse for biodistribution studies). All injections were less than 200 μL with <10% EtOH in sterile PBS. PET images were obtained with the mice under anesthesia in an Inveon PET-CT or microPET Focus 120 (Siemens) at 0.5-48 h p.i. All images were analyzed using ASIPro VM (Concorde Microsystems). SPECT images were obtained with the mice under anesthesia in a NanoSPECT/CT Plus at 4-24 h p.i. All SPECT images were reconstructed using HiSPECT and analyzed using InVivoScope. Dissections for ex vivo biodistribution were performed on mice after CO2 asphyxiation or cervical dislocation while anesthetized at reported time points. Weight of the syringe prior to injection and after injection was used to determine the mass of injectate. Activity of the syringe prior to injection and after injection was used to determine the percent of injectate administered. The mass injected was corrected by the percent of radioactivity injected. Four to five aliquots (10 μL) were weighed and counted as internal standards for each study. All of the collected organs were counted using an automatic gamma counter (Wizard 3″, PerkinElmer, Waltham, MA). The total injected dose was found as the mass injected dose×fraction radioactivity injected×internal standard average counts/g. The percent injected dose (% ID) was determined as the counts for the tissue×100/total injected dose. The % ID/g was calculated as the % ID/tissue weight. The average and standard deviation of the % ID and % ID/g was determined using normal methods (n−1) for each set of mice."}, "[1]": {"system": "PC3 tumor-bearing male nude mice", "details": "mouse, in vivo", "description": "(§2) PC3 shoulder nude mouse xenografts. The cells were removed from the flasks, concentrated, and resuspended in minimal media for cell counting. The cells were then diluted to contain approximately 3 million cells in 150 μL of 1:1 media and matrigel (for shoulder xenografts). Following an MSKCC Institutional Animal Care and Use Committee approved protocol, 150 μL of the cell suspension was injected subcutaneously in 6-9 week old nude male mice (CRL). Mice were used in studies at 3 weeks post inoculation. The mice were injected with 50-75 μCi (0.9-0.4 nmol) of the respective radiopharmaceutical for in vivo biodistribution or 500-600 μCi (9-11 nmol) for in vivo imaging. […]\n(§3) In vivo animal PET imaging and biodistribution. […] All images were analyzed using ASIPro VM (Concorde Microsystems). […] All SPECT images were reconstructed using HiSPECT and analyzed using InVivoScope. […] The mass injected was corrected by the percent of radioactivity injected. Four to five aliquots (10 μL) were weighed and counted as internal standards for each study. All of the collected organs were counted using an automatic gamma counter (Wizard 3″, PerkinElmer, Waltham, MA). The total injected dose was found as the mass injected dose×fraction radioactivity injected×internal standard average counts/g. The percent injected dose (% ID) was determined as the counts for the tissue×100/total injected dose. […]"}, "[2]": {"system": "LNCaP tumor-bearing male nude mice", "details": "mouse, in vivo", "description": "as §2, with “LNCaP shoulder” for “PC3 shoulder”, “approximately 3-6” for “approximately 3”, “matrigel (or” for “matrigel (for”, “in 6-8” for “in 6-9”, “at 3-8” for “at 3”\nas §3"}, "[3]": {"system": "4T1 orthotopic tumor-bearing BALB/c mice", "test": "in vivo", "details": "mouse", "description": "as §1"}, "tumor": {"system": "tumor", "details": "in vivo; cited from earlier work"}}}
{"compound": "CC(C)C[C@@H](NC(=O)[C@@H](CC(C)C)NC(=O)[C@@H](CC(=O)O)NC(=O)[C@@H](CC(C)C)NC(=O)[C@@H](CC(C)C)NC(=O)[C@@H](CC(C)C)NC(=O)[C@H](NC(=O)[C@@H](CC(=O)O)NC(=O)[C@H](NC(=O)[C@H]1CCCN1C(=O)[C@@H](Cc1ccccc1)NC(=O)[C@@H](CC(C)C)NC(=O)[C@@H](CC(C)C)NC(=O)[C@@H](CC(=O)O)NC(=O)[C@@H](CC(C)C)NC(=O)[C@@H](Cc1ccc(O)cc1)NC(=O)[C@@H](C)NC(=O)[C@@H](CCCNC(=N)N)NC(=O)[C@@H](Cc1c[nH]c2ccccc12)NC(=O)[C@H]1CCCN1C(=O)[C@@H](CC(N)=O)NC(=O)[C@@H](CCC(N)=O)NC(=O)[C@@H](CC(=O)O)NC(=O)[C@@H](CC(=O)O)NC(=O)[C@@H](CSC1CC(=O)N(CCNC(=O)CN2CCN(CC(=O)O)CCN(CC(=O)O)CC2)C1=O)NC(=O)[C@@H](C)N)[C@H](C)O)[C@H](C)O)C(=O)N[C@H](Cc1c[nH]c2ccccc12)C(=O)O", "note": "(single isomer, unassigned) [^64Cu-NO2A-cysVar3, metal not drawn]", "values": [{"measurement": "tissue uptake at 24 h", "setting": "in vivo", "value": "19.2 ± 1.8", "unit": "%ID/g"}, {"measurement": "tumor:bone ratio", "setting": "[1]", "value": "2.7±0.6"}, {"measurement": "tumor:muscle ratio", "setting": "[1]", "value": "7.4±1.3"}, {"measurement": "tumor:bone ratio", "setting": "[2]", "value": "4.2±1.7"}, {"measurement": "tumor:muscle ratio", "setting": "[2]", "value": "6±2"}]}
{"compound": "CC(C)C[C@@H](NC(=O)[C@@H](CCC(=O)O)NC(=O)[C@@H](CC(C)C)NC(=O)[C@@H](CC(C)C)NC(=O)[C@@H](CC(C)C)NC(=O)[C@H](NC(=O)[C@@H](CCC(=O)O)NC(=O)[C@H](NC(=O)[C@H]1CCCN1C(=O)[C@@H](Cc1ccccc1)NC(=O)[C@@H](CC(C)C)NC(=O)[C@@H](Cc1c[nH]c2ccccc12)NC(=O)[C@@H](CCC(=O)O)NC(=O)[C@@H](CC(C)C)NC(=O)[C@@H](Cc1ccc(O)cc1)NC(=O)[C@@H](CCCNC(=N)N)NC(=O)[C@@H](C)NC(=O)[C@@H](Cc1c[nH]c2ccccc12)NC(=O)[C@H]1CCCN1C(=O)[C@@H](CC(N)=O)NC(=O)[C@@H](CCC(N)=O)NC(=O)[C@@H](CCC(=O)O)NC(=O)[C@@H](CCC(=O)O)NC(=O)[C@@H](CS)NC(=O)[C@@H](C)NC(=S)Nc1ccc(CC2CN(CC(=O)O)CCN(CC(=O)O)CCN2CC(=O)O)cc1)[C@H](C)O)[C@H](C)O)C(=O)O", "note": "(single isomer, unassigned) [^64Cu-NOTA-Var7, metal not drawn]", "values": [{"measurement": "kidneys-to-large intestine ratio", "setting": "[3]", "value": "0.32±0.07"}, {"measurement": "biodistribution, Blood", "setting": "[3]; iv, 4 h", "value": "0.833 ± 0.068", "unit": "% ID/g"}, {"measurement": "biodistribution, Bone", "setting": "[3]; iv, 4 h", "value": "0.229 ± 0.093", "unit": "% ID/g"}, {"measurement": "biodistribution, Brain", "setting": "[3]; iv, 4 h", "value": "0.042 ± 0.004", "unit": "% ID/g"}, {"measurement": "biodistribution, Heart", "setting": "[3]; iv, 4 h", "value": "0.35 ± 0.04", "unit": "% ID/g"}, {"measurement": "biodistribution, Kidneys", "setting": "[3]; iv, 4 h", "value": "6.790 ± 0.461", "unit": "% ID/g"}, {"measurement": "biodistribution, L. intestine", "setting": "[3]; iv, 4 h", "value": "7.78 ± 0.61", "unit": "% ID/g"}, {"measurement": "biodistribution, Liver", "setting": "[3]; iv, 4 h", "value": "0.739 ± 0.041", "unit": "% ID/g"}, {"measurement": "biodistribution, Lungs", "setting": "[3]; iv, 4 h", "value": "0.996 ± 0.066", "unit": "% ID/g"}, {"measurement": "biodistribution, Muscle", "setting": "[3]; iv, 4 h", "value": "0.118 ± 0.025", "unit": "% ID/g"}, {"measurement": "biodistribution, Pancreas", "setting": "[3]; iv, 4 h", "value": "0.198 ± 0.043", "unit": "% ID/g"}, {"measurement": "biodistribution, S. intestine", "setting": "[3]; iv, 4 h", "value": "0.307 ± 0.077", "unit": "% ID/g"}, {"measurement": "biodistribution, Skin", "setting": "[3]; iv, 4 h", "value": "0.563 ± 0.145", "unit": "% ID/g"}, {"measurement": "biodistribution, Spleen", "setting": "[3]; iv, 4 h", "value": "0.279 ± 0.016", "unit": "% ID/g"}, {"measurement": "biodistribution, Stomach", "setting": "[3]; iv, 4 h", "value": "0.300 ± 0.076", "unit": "% ID/g"}, {"measurement": "biodistribution, Tumor (4T1 tumoral uptake)", "setting": "[3]; iv, 4 h", "value": "0.546 ± 0.075", "unit": "% ID/g"}, {"measurement": "overall tumor uptake", "setting": "tumor", "value": "1.36±0.43", "unit": "% ID/g"}]}
